For the experiment, the target named is T1, M2AchR (Rattus norvegicus, UniProt P10980).
T1 construct: expressed in transfected cells; host or cells: HEK-293 (chimera stably or transiently expressed; M2AchR transiently transfected)
T1 sequence (P10980 1-466): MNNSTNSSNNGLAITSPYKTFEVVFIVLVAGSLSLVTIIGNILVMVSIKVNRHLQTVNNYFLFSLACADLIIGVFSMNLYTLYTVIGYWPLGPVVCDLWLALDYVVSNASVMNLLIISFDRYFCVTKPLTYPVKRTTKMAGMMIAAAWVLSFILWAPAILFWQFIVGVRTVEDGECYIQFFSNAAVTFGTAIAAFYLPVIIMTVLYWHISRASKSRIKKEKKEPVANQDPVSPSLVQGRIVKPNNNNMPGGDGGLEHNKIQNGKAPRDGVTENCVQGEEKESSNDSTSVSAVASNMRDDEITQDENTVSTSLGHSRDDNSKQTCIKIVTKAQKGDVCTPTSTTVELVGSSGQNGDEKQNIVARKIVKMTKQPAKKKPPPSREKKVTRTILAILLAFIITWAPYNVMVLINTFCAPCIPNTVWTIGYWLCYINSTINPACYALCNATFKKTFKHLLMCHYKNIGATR
In words: CRE-SEAP reporter gene assay, stably versus transiently expressed chimeric G proteins. As to conditions: cells transiently expressing the chimera construct, 10 uM acetylcholine. It is filed as cell-based. The protocol:
The ligand-induced SEAP activity for cells stably transfected and expressing Gαs-based chimeric G proteins was compared with that of cells transiently expressing Gαs-based chimeric G proteins. Stable expression is achieved by integration of the construct of interest into the target cell's chromosome. Cell lines were prepared that stably expressed Gαs-Gαt-13, Gαs-Gαi-13, and Gαs-Gαo-13 G protein chimeras. […] Therefore, cell lines stably expressing the Gαs-based chimeric G proteins can provide enhanced sensitivity for the screening and identification of GPCR ligands.
Preparation of cells stably expressing G protein chimeras: HEK-293 cells were transfected with each of the G protein chimeras of interest. Following transfection, the cells were split and diluted in media containing 0.7 mg/ml neomycin (Gibco). Cells were grown until clones could be picked. At least 25 clones from each of the stables were picked, and tested for their suitability as sensor cell lines, by transfecting them with CRE-SEAP and cDNA encoding the M2AchR receptor. Those stables that elicited the maximal signal to noise following activation of the GPCRs were chosen and maintained. […]
Following transfection, the cells were maintained for 48 hours in 200 ul serum free media containing 10 uM acetylcholine (Sigma). […] Fluorescence was then measured using a CytoFluor 4000 multi well plate reader (Applied Biosystems).

B1: Gαs-Gαt-13: Gαs-based chimeric G protein, final 13 C-terminal amino acids substituted with those of Gαt (protein)
chain: MGCLGNSKTEDQRNEEKAQREANKKIEKQLQKDKQVYRATHRLLLLGAGESGKSTIVKQMRILHVNGFNGEGGEEDVPDYASNSDGEKATKVQDIKNNLKEAIETIVAAMSNLVPPVELANPENQFRVDYILSVMNVPNFDFPPEFYEHAKALWEDEGVRACYERSNEYQLIDCAQYFLDKIDVIKQADYVPSDQDLLRCRVLTSGIFETKFQVDKVNFHMFDVGGQRDERRKWIQCFNDVTAIIFVVASSSYNMVIREDNQTNRLQEALNLFKSIWNNRWLRTISVILFLNKQDLLAEKVLAGKSKIEDYFPEFARYTTPEDATPEPGEDPRVTRAKYFIRDEFLRISTASGDGRHYCYPHFTCAVDTENIRRVFNDCRDIIIKENLKDCGLF
modifications: Chimeric protein
notes: Gαs-based chimeric G protein, final 13 C-terminal amino acids substituted with those of Gαt
B1: the “increase in SEAP activity” value is given as “approximately 10 fold”.

The values are drawn from US9658208B2, “Methods and G proteins for screening and identifying ligands of G protein-coupled receptors” (Fred Hutchinson Cancer Research Center, priority 2011, dated 2017).
